Where two headings read alike, the source gives them in different places.
Tests used:
[1] = molecular target: T1, base coil K5 (five heptad repeats), YS2H bait fused to Aga2 with C-terminal FLAG tag (yeast)
[2] = molecular target: T2, base coil K3 (three heptad repeats), YS2H bait fused to Aga2 with C-terminal FLAG tag (yeast)
[3] = molecular target: T3, base coil K4 (four heptad repeats), YS2H bait fused to Aga2 with C-terminal FLAG tag (yeast)
[4] = molecular target: T1, base coil K5 (five heptad repeats), …; assay: predicted from YS2H (flow cytometry of Myc and FLAG tags, Langmuir equation)
[5] = molecular target: T2, base coil K3 (three heptad repeats), …; assay: as above
[6] = molecular target: T3, base coil K4 (four heptad repeats), …; assay: as above
[7] = molecular target: T2, base coil K3 (three heptad repeats), …; assay: YS2H, Kn-Flag : En-Myc: bait on the yeast surface as Aga2 fusion, secreted prey captured by it; flow cytometry with anti-Myc antibody, MFI of the whole induced population; Flag (bait) MFI of this clone 70; K3-only control Myc MFI 8
[8] = molecular target: T2, base coil K3 (three heptad repeats), …; remark: listed apart in the source
[9] = molecular target: NeGFP (partner of the row 'E3' in Figure 2d, base coil deleted, cytosolic)
[10] = molecular target: T2, base coil K3 (three heptad repeats), …; remark: listed apart in the source

VSALEKEVSALEKEVSALEKEVSALEKEVSALEKEEQKLISEEDL (modifications not checked) [acid coil E5 (five heptad repeats), secreted YS2H prey with C-terminal Myc tag]
MFI (anti-Myc) [1]: 1200
MFI (anti-Myc) [2]: 10
MFI (anti-Myc) [3]: 653
Kd [4]: 0.49 nM
Kd [5]: 1290 nM
Kd [6]: 18.3 nM

VSALEKEVSALEKEVSALEKEEQKLISEEDL (modifications not checked) [acid coil E3 (three heptad repeats), secreted YS2H prey with C-terminal Myc tag]
MFI (anti-Myc) [7]: 8
MFI of complemented split eGFP in the cytosol (K3-NeGFP : E3-CeGFP, no signal sequences) [8]: 216
MFI of complemented split eGFP in the cytosol, control row 'E3' (NeGFP with the base coil deleted : E3-CeGFP) [9]: 7
Kd [5]: 1270 nM
MFI of complemented split eGFP, secretory pathway (K3-NeGFP-Flag : E3-CeGFP-Myc); Flag MFI 67 [10]: 20

VSALEKEVSALEKEVSALEKEVSALEKEEQKLISEEDL (modifications not checked) [acid coil E4 (four heptad repeats), secreted YS2H prey with C-terminal Myc tag]
MFI (anti-Myc) [3]: 68
Kd [6]: 151 nM
